Reference: patent US20130210023, “NUCLEIC ACID […] AGAINST PLASMODIUM LACTATE DEHYDROGENASE AND HISTIDINE-RICH PROTEIN II AND USES […] FOR MALARIA DIAGNOSIS” (THE UNIVERSITY OF HONG KONG, published 2013)

Columns and labels:
[1] = target: T1, Plasmodium falciparum lactate dehydrogenase (PfLDH) (Plasmodium falciparum 3D7, UniProt Q76NM3 Q76NM3:1-316); assay: ITC; nanomolar, similar Kd and stoichiometry to 2009s; same buffer, 25 C; settings: chain copies: 4 stated (tetramer in crystal)
[2] = target: human lactate dehydrogenase A1 (hLDHA1) (Homo sapiens, UniProt P00338 P00338:1-332); assay: ITC; no binding by ITC, EMSA and SPR; no AuNP color change
[3] = target: human lactate dehydrogenase B (hLDHB) (Homo sapiens, UniProt P07195 P07195:2-334); assay: as above; settings: tags: His tag (pET-28a, HisTrap purified); chain copies: 4; last 8 nt disordered; not G4
human lactate dehydrogenase B (hLDHB), sequence (P07195 2-334, one chain of several): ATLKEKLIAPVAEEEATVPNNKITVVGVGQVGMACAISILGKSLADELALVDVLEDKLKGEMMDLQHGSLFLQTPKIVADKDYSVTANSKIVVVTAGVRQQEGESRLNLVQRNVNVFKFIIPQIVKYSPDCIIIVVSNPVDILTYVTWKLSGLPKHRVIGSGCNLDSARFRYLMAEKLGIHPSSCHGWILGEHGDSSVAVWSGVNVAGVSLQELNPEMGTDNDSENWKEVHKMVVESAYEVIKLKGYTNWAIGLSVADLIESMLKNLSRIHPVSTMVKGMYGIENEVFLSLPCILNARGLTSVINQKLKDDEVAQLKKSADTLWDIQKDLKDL

[4] = target: T1, Plasmodium falciparum lactate …; assay: structure; crystal structure, two aptamers per PfLDH tetramer; contacts residues 102-108, Asp53, Ile54 (A) and Lys62, His250 (B); settings: chain copies: 4 stated (tetramer in crystal); last 8 nt disordered; not G4
[5] = target: T1, Plasmodium falciparum lactate …; assay: ITC; nanomolar Kd, value only in figure; N=0.152; 25 mM Tris-HCl pH 7.5, 0.1 M NaCl, 20 mM imidazole, 25 C; settings: chain copies: 4 stated (tetramer in crystal)
[6] = target: T1, Plasmodium falciparum lactate …; assay: ITC; nanomolar Kd, value only in figure; N=0.451; 25 mM Tris-HCl pH 7.5, 0.1 M NaCl, 20 mM imidazole, 25 C; settings: chain copies: 4 stated (tetramer in crystal)
[7] = target: T1, Plasmodium falciparum lactate …; assay: ITC; nanomolar Kd, value only in figure; N=0.177; 25 mM Tris-HCl pH 7.5, 0.1 M NaCl, 20 mM imidazole, 25 C; settings: chain copies: 4 stated (tetramer in crystal)

B1: 2009 (2009s with 18-mer flanks on both ends) (ssDNA)
DNA: CGTACGGTCGACGCTAGCTAGGTGGCCAGAAGGTAGAACCATAGTGGTCTGGTACACGTGGAGCTCGGATCC
Does B1 bind [1]?
Result: binds

Does CTGGGCGGTAGAACCATAGTGACCCAGCCGTCTAC (ssDNA) [2008s] bind [2]?
Result: no binding

Does CTGGGCGGTAGAACCATAGTGACCCAGCCGTCTAC (ssDNA) [2008s] bind [3]?
Result: no binding

Does CTGGGCGGTAGAACCATAGTGACCCAGCCGTCTAC (ssDNA) [2008s] bind [4]?
Result: binds

Does ACGCGAGCAGGTGGTAGAATCATAATGGCCTGATC (ssDNA) [2004s] bind [5]?
Result: binds

Does TAGGTGGCCAGAAGGTAGAACCATAGTGGTCTGGTA (ssDNA) [2009s] bind [6]?
Result: binds

Does AGAATGGCGGGAGAGCCTTAGCGACCATTCGTAC (ssDNA) [2021s] bind [7]?
Result: binds
